Measurements from the supplement of paper PMC12338614.

B1: library; numbered along this chain (parent)
chain: MEVVDPQQLGMFTEGELMSVGMDTFIHRIDSTEVIYQPRRKRAKLIGKYLMGDLLGEGSYGKVKEVLDSETLCRRAVKILKKKKLRRIPNGEANVKKEIQLLRRLRHKNVIQLVDVLYNEEKQKMYMVMEYCVCGMQEMLDSVPEKRFPVCQAHGYFCQLIDGLEYLHSQGIVHKDIKPGNLLLTTGGTLKISDLGVAEALHPFAADDTCRTSQGSPAFQPPEIANGLDTFSGFKVDIWSAGVTLYNITTGLYPFEGDNIYKLFENIGKGSYAIPGDCGPPLSDLLKGMLEYEPAKRFSIRQIRQHSWFRKKHPPAEAPVPIPPSPDTKDRWRSMTVVPYLEDLHGADEDEDLFDIEDDIIYTQDFTVPGQVPEEEASHNGQRRGLPKAVCMNGTEAAQLSTKSRAEGRAPNPARKACSASSKIRRLSACKQQ

Variants of: B1
Test: STK11 functional score (HeLa growth suppression), rescaled enrichment; synonymous median = 1, nonsense median = 0 (normalised score)
Conditions: with HeLa; variant type: missense
Outline: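 The functional score takes the post/pre-selection log ratio, corrects it to wild type, rescales it to synonymous and nonsense medians, and merges it over codons and replicate transfections, with error from bootstrapping. Counts came from tiled gDNA amplicons sequenced on NextSeq (~2 million reads per tile). The libraries were POPCode codon-randomised, codon-optimised STK11 integrated by Bxb1 at an AAVS1 landing pad in HeLa, three regions with three transfections each.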

STK11 functional score: each site, then its substitutions
T189: C 1.15 | Y 0.71 | R 1.41 | N 0.455 | L 1.24 | I 1.33 | P 1.12 | W 1.2 | G 0.924 | V 1.3 | F 1.25
N181: V -0.181 | D -0.134 | T -0.449 | W -0.0742 | C -0.0246 | L -0.122 | M -0.246 | R -0.0333 | A 0.0629 | Y -0.0251 | I -0.248 | E -0.231 | G 0.0242 | K -0.18 | Q 0.708 | F -0.0897 | H 0.134 | S -0.0295 | P -0.0573
G180: F 0.804 | S 1.14 | M 0.93 | A 1.34 | E 1.09 | V 0.816 | C 1.09 | Q 1.64 | P 0.814 | N 1.39 | T 1.53 | R 0.948 | H 1.65 | L 1.02 | I 1.41 | W 1.44
L184: R 0.329 | A 0.745 | Q 0.906 | M 0.45 | G 0.204 | V 1.01 | N 0.425 | T 1.49 | S 0.61 | C 0.804 | H 0.93 | W 0.145 | F 0.735 | I 0.978 | D -0.0783 | P 0.189
K178: G 0.325 | E -0.00538 | F 0.35 | W 0.413 | C 0.883 | M 0.202 | P -0.0986 | R 0.681 | I 0.388 | L 0.63 | S 0.586 | T 0.951 | A 0.756 | V 0.434
S193: G 0.596 | I 1.17 | Y -0.104 | E 1.54 | M 0.111 | T 1.22 | H 0.192 | L 0.696 | F -0.0251 | K 0.0789 | V 0.77 | R -0.142 | N 1.61 | W 0.0192 | A 0.853 | C 0.963
V197: R 1 | L 1.05 | G 0.372 | S 1.58 | A 1.26 | C 1.55 | W 1.25 | M -0.102
G188: L 0.732 | R 1.19 | A 0.938 | Y 1.6 | S 1.05 | C 0.212 | V 0.388 | D 1.43 | P 1.36 | M -0.0265 | F 0.918 | W 0.946 | I 1.04
E199: K 1.2 | Q 0.887 | V 1.49 | S 1.21 | Y 1.04 | A 1.44 | H 1.39 | L 0.971 | C 1.38 | W 0.303 | P 0.87 | N 1.54 | G 1.07 | F 1.37 | R 1.67 | I 0.977
A198: P 0.974 | G 1.28 | V 1.38 | L 1.13 | W 1.16 | T 1.23 | H 1.54 | N 0.745 | Y 1.04 | I -0.192 | F 0.731 | S 0.503 | R 0.174
G187: V 0.795 | S 1.67 | T 1.59 | R 0.864 | A 1.09 | P 1.49 | W 1.65 | I 1.62 | L 1.27
K191: S 1.17 | G 0.729 | A 1.12 | V 1.19 | I 1.19 | D -0.393 | W 0.459 | L 0.262 | C 0.0918 | R 1.42 | T 1.16 | N 0.186 | F 0.589
T186: S 1.1 | C 1.19 | R 1.11 | W 0.861 | V 1.24 | L 1.54 | N 0.218 | A 1.16 | F 1.33 | H 0.54 | P 1.52 | Y 1.14 | M 0.369
A200: C 1.13 | S 0.652 | I 1.31 | D 0.859 | H 1.49 | P 1.35 | M 1.65 | F 0.455 | L 0.6 | G 0.439 | V 0.901 | R 0.878 | T 1.02
G196: A 0.488 | V 1.08 | R -0.0503
L182: V 0.907 | W 0.0906 | I 1.56 | P -0.0858 | E -0.122 | T 1.12 | C 1.17 | A 0.345 | S 0.561 | F 1.03 | G 0.327 | H -0.198 | Y -0.00243 | R 0.129 | N 1.01 | D 0.257
D194: F -0.213 | Y -0.089 | R -0.0399 | P -0.348 | G -0.36 | V -0.261 | L -0.0619 | H -0.252 | C -0.228 | E -0.268 | S -0.236 | I -0.258
P179: Y 0.059 | E 0.0456 | V 0.541 | T 0.709 | S 0.562 | M 0.544 | A 0.764 | D -0.213 | G 0.216 | W 0.088 | L 0.376 | H -0.0435 | R -0.0831 | F 0.0795 | I 0.823
L190: W 0.118 | D -0.215 | F 0.343 | P 0.0599 | R 0.223 | S 0.0644 | V 1 | M 1.21 | I 1.04 | Y 0.0792 | G 0.073 | A 0.537
I192: Y 1.11 | C 1.43 | N 1.23 | V 1.33 | W 0.0777 | T -0.0391 | M 1.25 | F 1.13
K175: Y 0.592 | V 0.466 | W 0.478 | R 1.47 | T 1.07 | S 0.884 | Q 1.19 | P -0.179
L183: P 0.221 | H 1.43 | T 1.1 | A 0.587 | Y 1.57 | F 0.885 | S 0.646 | R 0.0747 | V 1.2 | G 0.551 | E 0.3 | D 0.119 | M -0.0817
D176: K -0.194 | R -0.0226 | V 0.0775 | M 0.0191 | C -0.0937 | S -0.0857 | W -0.0742 | N -0.273 | I -0.156 | A -0.0851 | G -0.169 | F -0.058 | E 0.211 | Y -0.343 | H -0.154 | L -0.164 | T -0.105 | P 0.0199
T185: F 0.993 | W 0.387 | R 0.992 | S 0.939 | P 0.0618 | Y 0.976 | I 0.548 | C 1.13 | V 0.913 | H 0.484 | D 0.415 | G 0.548 | L 1.08 | N 0.509
I177: L 0.956 | D 0.0262 | R -0.0129 | G -0.017 | P 0.166 | F 0.54 | W -0.249 | V 1.06 | M 0.6 | S -0.0448 | Y 0.215 | H -0.12 | A 0.128
L195: E 1.59 | I 1.44 | G 0.969 | V 0.433 | S 0.972 | R 0.0408 | A 1.17 | P 1.49 | T 1.67 | F 1.46 | W 0.87 | D 1.64
